One block for each binder: values may come before it. Positions of bridges follow the written chain, without caps; N, C: chain ends. Groups on a side chain read outwards from the residue. Chains are numbered I, II in the order given. No end group written: not given here. *: point of attachment. Biotin = O=C1N[C@H]2[C@H](CS[C@H]2CCCCC(=O)*)N1; fluorescein = fluorescein label on a side chain; AEEA = NCCOCCOCC(=O)O
Columns and labels:
[1] = target: T1, Soluble KDR receptor (UniProt P35968 20-764, limits assumed); assay: SPR (Biacore 3000), soluble KDR on CM5 chip; ka,1 (initial encounter)
T1 construct: Immobilised by amine coupling, RL 12721
Protocol: (§1) Soluble KDR receptor was cross-linked to the dextran surface of a CM5 sensor chip by the standard amine coupling procedure. […] For association, peptides were injected at 20 μL/min for 2 minutes using the kinject program. Following a 3 minute dissociation period, any remaining peptide was stripped from the KDR surface with a quickinject of 50 mM NaOH, 1M NaCl for 15 s at 75 μL/min. […] Sensorgrams were analyzed by global analysis using BIAevaluation software 3.1.

[2] = target: T1, Soluble KDR receptor; assay: SPR (Biacore 3000), soluble KDR on CM5 chip; apparent KD
Protocol: as §1

[3] = target: T1, Soluble KDR receptor; assay: SPR (Biacore 3000), soluble KDR on CM5 chip; ratio of the KD of monomer P10 to the apparent KD of the head-to-head dimer
Protocol: as §1

[4] = target: T1, Soluble KDR receptor; assay: SPR (Biacore 3000), soluble KDR on CM5 chip; column kd,1, by the text the predominant off-rate kd,2; predominant off-rate (kd,2 by the text) printed under the head kd,1
Protocol: as §1

[5] = target: T2, KDR (VEGFR-2, Flk-1), full-length receptor on cells (human, UniProt P35968 20-1356); assay: saturation binding of peptide/neutravidin-HRP complex, KDR- minus mock-transfected 293H cells
T2 construct: whole, on cells; endogenous on HUVECs in the functional assays; also called VEGF receptor 2
Protocol: After incubation at room temperature, plates were transferred to 4° C. for another half-hour incubation. Subsequently, cells were washed five times with ice-cold M199 media and 1× with ice-cold PBS (in that order). After the final wash, 100 μL of ice cold TMB solution (KPL, cat. # 50-76-00) was added to each well, and each plate was incubated for 30 minutes at 37° C. in an air incubator.
Therefore, absorbance on the Y-axis of FIG. 8 is differential absorbance (KDR minus mock) and not the absolute absorbance.

[6] = target: T2, KDR (VEGFR-2, Flk-1), full-length …; assay: displacement of P12-XB/streptavidin-HRP complex (5.5 nM) from KDR-expressing cells
[7] = target: T1, Soluble KDR receptor; assay: SPR (Biacore 3000), soluble KDR on CM5 chip; column kd,1, by the text the predominant off-rate kd,2
Protocol: as §1

[8] = target: T1, Soluble KDR receptor; assay: Biacore
Protocol: as §1

[9] = target: T1, Soluble KDR receptor; assay: SPR (Biacore 3000), soluble KDR on CM5 chip; ratio of the KD of monomer P9 to the apparent KD of the tail-to-tail dimer
Protocol: as §1
By design, the interaction of a dimeric peptide with KDR is expected to proceed through two kinetic steps.

[10] = target: T3, KDR-Fc (chimeric fusion of Ig Fc region with human KDR, R&D Systems #357-KD-050) (human, UniProt P35968 20-764); assay: fluorescence polarisation, monodentate peptide against KDRFc
T3 construct: Bought; also called KDR Fc fusion; not shown: Ig Fc region of the bought chimera
T3 sequence (P35968 20-764, stated change not applied): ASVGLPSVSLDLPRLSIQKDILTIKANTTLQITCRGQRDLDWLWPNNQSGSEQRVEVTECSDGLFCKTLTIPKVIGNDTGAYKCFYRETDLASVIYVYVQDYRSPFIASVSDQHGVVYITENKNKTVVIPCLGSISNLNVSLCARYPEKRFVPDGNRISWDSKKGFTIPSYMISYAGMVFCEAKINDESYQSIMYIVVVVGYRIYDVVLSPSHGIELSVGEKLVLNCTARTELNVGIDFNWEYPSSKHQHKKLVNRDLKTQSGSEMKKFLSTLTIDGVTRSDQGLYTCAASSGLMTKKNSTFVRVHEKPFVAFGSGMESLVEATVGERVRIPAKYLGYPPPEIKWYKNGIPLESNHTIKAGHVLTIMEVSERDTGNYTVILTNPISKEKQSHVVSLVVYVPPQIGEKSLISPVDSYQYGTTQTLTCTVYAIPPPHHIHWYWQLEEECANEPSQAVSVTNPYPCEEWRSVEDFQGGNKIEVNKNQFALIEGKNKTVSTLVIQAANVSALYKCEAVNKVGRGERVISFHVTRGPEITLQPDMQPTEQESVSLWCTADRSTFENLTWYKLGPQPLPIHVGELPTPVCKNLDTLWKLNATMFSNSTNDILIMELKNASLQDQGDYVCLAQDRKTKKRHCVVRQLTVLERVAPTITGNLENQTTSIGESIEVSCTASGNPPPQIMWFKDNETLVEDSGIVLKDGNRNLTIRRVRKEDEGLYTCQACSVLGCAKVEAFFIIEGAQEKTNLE

T1 sequence (P35968 20-764 limits assumed): as the sequence (P35968 20-764, stated change not applied) above
T2 sequence (P35968 20-1356): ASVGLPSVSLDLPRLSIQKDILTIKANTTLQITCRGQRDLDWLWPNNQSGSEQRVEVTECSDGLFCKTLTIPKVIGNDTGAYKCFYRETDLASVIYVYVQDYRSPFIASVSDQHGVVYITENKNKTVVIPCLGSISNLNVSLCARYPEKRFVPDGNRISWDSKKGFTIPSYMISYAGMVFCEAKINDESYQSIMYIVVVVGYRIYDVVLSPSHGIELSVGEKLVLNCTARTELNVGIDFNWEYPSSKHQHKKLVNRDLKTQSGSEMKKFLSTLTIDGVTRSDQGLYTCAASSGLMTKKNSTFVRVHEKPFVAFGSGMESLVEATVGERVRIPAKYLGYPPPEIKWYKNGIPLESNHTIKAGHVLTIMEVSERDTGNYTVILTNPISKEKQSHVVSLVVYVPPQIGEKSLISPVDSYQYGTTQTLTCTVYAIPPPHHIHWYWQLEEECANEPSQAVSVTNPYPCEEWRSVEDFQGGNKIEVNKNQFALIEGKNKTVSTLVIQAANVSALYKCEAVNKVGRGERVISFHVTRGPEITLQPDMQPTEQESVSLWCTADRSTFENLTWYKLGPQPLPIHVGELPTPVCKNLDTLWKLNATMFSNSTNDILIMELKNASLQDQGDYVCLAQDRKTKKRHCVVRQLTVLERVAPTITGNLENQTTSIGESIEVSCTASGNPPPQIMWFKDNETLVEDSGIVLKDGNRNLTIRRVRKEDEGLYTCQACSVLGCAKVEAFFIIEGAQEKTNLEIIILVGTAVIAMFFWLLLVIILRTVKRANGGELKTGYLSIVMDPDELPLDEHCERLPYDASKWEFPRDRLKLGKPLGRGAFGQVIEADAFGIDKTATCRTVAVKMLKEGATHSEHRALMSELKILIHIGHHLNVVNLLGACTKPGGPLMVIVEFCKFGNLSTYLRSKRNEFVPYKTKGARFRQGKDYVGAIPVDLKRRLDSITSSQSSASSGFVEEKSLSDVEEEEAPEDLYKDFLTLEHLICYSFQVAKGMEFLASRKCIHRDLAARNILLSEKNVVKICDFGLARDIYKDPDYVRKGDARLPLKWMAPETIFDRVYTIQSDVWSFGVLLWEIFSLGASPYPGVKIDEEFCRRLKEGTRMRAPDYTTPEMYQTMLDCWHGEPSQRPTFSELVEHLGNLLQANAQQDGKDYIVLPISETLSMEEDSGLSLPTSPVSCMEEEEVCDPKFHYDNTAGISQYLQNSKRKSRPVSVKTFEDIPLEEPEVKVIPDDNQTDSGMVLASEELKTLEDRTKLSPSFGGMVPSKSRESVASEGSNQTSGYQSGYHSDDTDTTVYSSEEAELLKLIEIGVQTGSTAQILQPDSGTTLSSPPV

B1: Head-to-head dimer of P9 and P10 (peptide)
peptide 1: AQEPEGYAYWEVITLYHEEDGDGG
peptide 2: AQAFPRFGGDDYWIQQYLRYTDGG
modifications: not fully specified; N-terminal amino group carries an NH-PEG4-CO linker and amino-oxyacetyl group, oxime-linked to the other chain; N-terminal amino group carries an NH-PEG4-CO linker and levulinyl group, oxime-linked to the other chain
notes: also called H-H dimer
kon [1]: 111000 M⁻¹ s⁻¹
Kd [2]: 2.24 nM
fold increase in affinity over monomer P10 [3]: > 560 fold
koff [4]: 0.000249 s⁻¹

B2: P6-XB (4X) on neutravidin-HRP (other)
peptide: Ac-GDSRVCWEDSWGGEVCFRYDPGGGK([AEEA-AEEA-Biotin])-NH2
modifications: disulfide 6-16; also: four peptides bound to neutravidin-HRP
notes: Peptides held on the four biotin sites of neutravidin-HRP; also called tetrameric P6-XB; P6-XB Tetramer
Kd [5]: 10 nM

Binder: AGPTWCEDDWYYCWLFGTGGGK(fluorescein)-NH2 (disulfide 6-13 (inferred)) [P12, monodentate peptide measured by FP]
Kd [10]: 3 nM

Now from value to binder:

IC50 [6]: 108 nM
B3: P34-L (peptide)
peptide: Ac-AGPTWKEDDWYYEWLFGTGGGK-NH2
modifications: lactam 6-13
SMILES: CC(=O)N[C@@H](C)C(=O)NCC(=O)N1CCC[C@H]1C(=O)N[C@H](C(=O)N[C@@H](Cc1c[nH]c2ccccc12)C(=O)N[C@H]1CCCCNC(=O)CC[C@@H](C(=O)N[C@@H](Cc2c[nH]c3ccccc23)C(=O)N[C@@H](CC(C)C)C(=O)N[C@@H](Cc2ccccc2)C(=O)NCC(=O)N[C@H](C(=O)NCC(=O)NCC(=O)NCC(=O)N[C@@H](CCCCN)C(N)=O)[C@@H](C)O)NC(=O)[C@H](Cc2ccc(O)cc2)NC(=O)[C@H](Cc2ccc(O)cc2)NC(=O)[C@H](Cc2c[nH]c3ccccc23)NC(=O)[C@H](CC(=O)O)NC(=O)[C@H](CC(=O)O)NC(=O)[C@H](CCC(=O)O)NC1=O)[C@@H](C)O
notes: also called lactam analog of P12-G

koff [7]: 0.00128 s⁻¹
kon [1]: 115000 M⁻¹ s⁻¹
Kd [8]: 11 nM
Kd [2]: 11.1 nM
fold increase in affinity over monomer P9 [9]: > 60 fold
B4: Tail-to-tail dimer of P9 and P10 (peptide)
peptide 1: Ac-AQEPEGYAYWEVITLYHEEDGDGGK-NH2
peptide 2: Ac-AQAFPRFGGDDYWIQQYLRYTDGGK-NH2
modifications: bridge I:25-II:25; not fully specified (bridges); printed as Ac-AQEPEGYAYWEVITLYHEEDGDGGK(Ac-AQAFPRFGGDDYWIQQYLRYTDGGK(—(O═)C(CH2CH2O)4CH2CH2NHC(═O)CH2CH2C(CH3)═NOCH2C(═O)NH(CH2CH2O)4CH2CH2C(═O)—)NH2)NH2; also: tail-to-tail dimer of two peptides joined through the Lys25 side chains
notes: also called T-T dimer; D31

Reference: patent US20050147555A1 (BRACCO SUISSE, published 2005)
